Laboratory results reported in patent US20250361296A1 (BIOCYTOGEN PHARMACEUTICALS BEIJING, published 2025).

T1: human SIGLEC4 on CHO-S-hSIGLEC4 cells (human, UniProt P20916 20-516)
T1 sequence: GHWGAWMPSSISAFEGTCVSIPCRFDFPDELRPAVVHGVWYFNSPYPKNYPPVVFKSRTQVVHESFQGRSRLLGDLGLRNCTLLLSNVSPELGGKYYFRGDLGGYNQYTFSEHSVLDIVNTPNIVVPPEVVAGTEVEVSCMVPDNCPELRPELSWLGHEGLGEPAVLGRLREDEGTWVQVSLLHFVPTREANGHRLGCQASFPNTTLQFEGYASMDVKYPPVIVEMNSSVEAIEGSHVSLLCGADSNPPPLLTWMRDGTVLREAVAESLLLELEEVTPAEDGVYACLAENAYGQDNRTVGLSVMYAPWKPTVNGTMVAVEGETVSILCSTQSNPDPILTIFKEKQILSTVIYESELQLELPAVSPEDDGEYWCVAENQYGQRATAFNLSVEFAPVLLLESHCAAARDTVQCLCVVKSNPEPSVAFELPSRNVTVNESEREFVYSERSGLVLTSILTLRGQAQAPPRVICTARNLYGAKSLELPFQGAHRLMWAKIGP

T2: human SIGLEC16 on CHO-S-hSIGLEC16 cells (human, UniProt A6NMB1 17-434)
T2 chain: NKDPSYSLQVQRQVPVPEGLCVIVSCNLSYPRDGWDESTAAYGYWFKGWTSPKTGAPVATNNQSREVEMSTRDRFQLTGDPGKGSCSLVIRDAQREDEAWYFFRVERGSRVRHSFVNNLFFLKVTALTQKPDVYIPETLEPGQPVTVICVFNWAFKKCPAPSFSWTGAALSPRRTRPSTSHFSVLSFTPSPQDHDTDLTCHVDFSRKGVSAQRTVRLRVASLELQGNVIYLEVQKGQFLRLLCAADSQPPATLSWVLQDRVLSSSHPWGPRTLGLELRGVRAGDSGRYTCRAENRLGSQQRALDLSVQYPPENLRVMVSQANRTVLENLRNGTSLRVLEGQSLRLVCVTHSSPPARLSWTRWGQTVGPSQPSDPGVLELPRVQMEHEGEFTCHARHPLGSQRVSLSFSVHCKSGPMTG

T3: human SIGLEC5 on CHO-S-hSIGLEC5 cells (human, UniProt O15389 17-441)
T3 sequence: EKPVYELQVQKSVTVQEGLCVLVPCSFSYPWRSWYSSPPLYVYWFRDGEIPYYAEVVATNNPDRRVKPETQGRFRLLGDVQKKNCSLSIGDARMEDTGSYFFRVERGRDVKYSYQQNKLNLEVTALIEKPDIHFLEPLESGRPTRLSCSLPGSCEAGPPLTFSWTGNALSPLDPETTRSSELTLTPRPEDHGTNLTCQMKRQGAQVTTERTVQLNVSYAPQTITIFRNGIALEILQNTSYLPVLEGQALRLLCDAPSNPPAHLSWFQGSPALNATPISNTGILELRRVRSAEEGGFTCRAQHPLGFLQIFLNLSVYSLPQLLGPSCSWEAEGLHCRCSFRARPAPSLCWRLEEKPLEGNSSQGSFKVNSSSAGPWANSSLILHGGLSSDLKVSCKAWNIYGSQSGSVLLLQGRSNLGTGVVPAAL

T4: human SIGLEC10 on CHO-S-hSIGLEC10 cells (human, UniProt Q96LC7 17-550)
T4 sequence: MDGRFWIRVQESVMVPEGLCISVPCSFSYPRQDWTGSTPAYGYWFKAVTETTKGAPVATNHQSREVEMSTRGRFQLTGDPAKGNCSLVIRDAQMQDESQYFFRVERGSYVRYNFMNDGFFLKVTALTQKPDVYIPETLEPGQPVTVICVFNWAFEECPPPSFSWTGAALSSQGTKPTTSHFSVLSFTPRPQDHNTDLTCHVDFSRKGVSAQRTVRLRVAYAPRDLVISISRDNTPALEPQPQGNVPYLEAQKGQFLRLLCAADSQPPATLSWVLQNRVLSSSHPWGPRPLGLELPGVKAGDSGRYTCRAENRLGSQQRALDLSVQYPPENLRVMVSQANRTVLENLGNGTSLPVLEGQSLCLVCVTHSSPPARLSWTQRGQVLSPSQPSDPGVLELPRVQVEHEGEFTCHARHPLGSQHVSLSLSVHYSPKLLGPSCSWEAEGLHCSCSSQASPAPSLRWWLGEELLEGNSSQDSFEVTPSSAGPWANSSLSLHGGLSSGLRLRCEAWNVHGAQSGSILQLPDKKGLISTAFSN


How the values were obtained:
Assay in all cases: flow cytometry, CHO-S cells expressing the target; as to Percentage of Positive Cells: test concentration or dose not given here
[1] = target: T1, human SIGLEC4 on CHO-S-hSIGLEC4 cells
Description: (§1) CHO-S-hSIGLEC15 cells, CHO-S-mSIGLEC15 cells, CHO-S-fasSIGLEC15 cells or CHO-S-dSIGLEC15 cells were transferred to a 96-well plate at a density of 5×10⁴ cells/well respectively. Serially diluted sample anti-SIGLEC15 antibodies were added to the 96-well plate, and incubated at 4° C. for 30 min. Then, the cells were incubated with the secondary antibody anti-hIgG-Fc-Alex Flour 647 (RL1-H) (Jackson ImmunoResearch Laboratories, Inc., 109-606-170) at 4° C. in the dark for 15 minutes before flow cytometry analysis.
(§2) Another similar experiment was performed to determine whether the anti-SIGLEC15 antibodies can bind with other SIGLEC family proteins. CHO-S-hSIGLEC1 cells (expressing hSIGLEC1, SEQ ID NO: 49)), CHO-S-hSIGLEC2 cells (expressing hSIGLEC2, SEQ ID NO: 50), CHO-S-hSIGLEC4 cells (expressing hSIGLEC4, SEQ ID NO: 51), CHO-S-hSIGLEC5 cells (expressing hSIGLEC5, SEQ ID NO: 52), CHO-S-hSIGLEC6 cells (expressing hSIGLEC6, SEQ ID NO: 53), CHO-S-hSIGLEC7 cells (expressing hSIGLEC7, SEQ ID NO: 54), CHO-S-hSIGLEC8 cells (expressing hSIGLEC8, SEQ ID NO: 55), CHO-S-hSIGLEC9 cells (expressing hSIGLEC9, SEQ ID NO: 56), CHO-S-hSIGLEC10 cells (expressing hSIGLEC10, SEQ ID NO: 57), CHO-S-hSIGLEC11 cells (expressing hSIGLEC11, SEQ ID NO: 58), CHO-S-hSIGLEC12 cells (expressing hSIGLEC12, SEQ ID NO: 59), CHO-S-hSIGLEC14 cells (expressing hSIGLEC14, SEQ ID NO: 60) or CHO-S-hSIGLEC16 cells (expressing hSIGLEC16, SEQ ID NO: 61) were used.

[2] = target: T2, human SIGLEC16 on CHO-S-hSIGLEC16 cells
Description: as §1, §2

[3] = target: T3, human SIGLEC5 on CHO-S-hSIGLEC5 cells
Description: as §1, §2

[4] = target: T4, human SIGLEC10 on CHO-S-hSIGLEC10 cells
Description: as §1, §2

Row | Percentage of Positive Cells [1] [%] | binding result [1] | Percentage of Positive Cells [2] [%] | binding result [2] | Percentage of Positive Cells [3] [%] | binding result [3] | Percentage of Positive Cells [4] [%] | binding result [4] | Binder
1 | 1.1 | no binding | 0.2 | no binding | 0.2 | no binding | 1.4 | no binding | anti-SIGLEC15 antibody 10A7 (antibody, human IgG1, V domains shown) VH: EVQLVQSGGGLVQPGGSLRLSCAASGFTFSNYEMNWVRQAPGKGLEWISYISNSGSTIYYADSVKGRFTISRDDAKNSLYLQMNSLRAEDTAVYYCAREDYDSSGYYWFDPWGQGTPVTVSS VL: DIQLTQSPSSVSASVGDRVTITCRASQGISSWLAWYQQKPGKAPKLLIYAASSLQSGVPSRFSGSGSGTDFTLTINSLQPEDFATYYCQQTNSFPLTFGGGTKVEIK
2 | 0.8 | no binding | 1.3 | no binding | 7 | no binding | 1.6 | no binding | anti-SIGLEC15 antibody 23F4 (antibody, human IgG1, V domains shown) VH: QVQLQQWGAGLLKPSETLSLTCAVYGGSFSGYFWSWIRQPPGKGLEWIGEINHSGSTNYNPSLKSRVTLSVDTSKNQFSLKLSSVTAADTAVYYCAREGDSSSWGNWFDPWGQGTLVTVSS VL: EIVLTQSPGTLSLSPGERATLSCRASQSVSSSYLAWYQQKPGQAPRFLIYGASSRATGIPDRFSGSGSGTDFTLTISRLEPEDFAVYYCQQFGNSPLTFGGGTKVEIK
3 | 1.2 | no binding | 0.2 | no binding | 0.2 | no binding | 1.5 | no binding | anti-SIGLEC15 antibody 10C9 (antibody, human IgG1, V domains shown) VH: QVQLVQSGAEVKKPGATVKVSCKASGYTFTNYGFSWVRQAPGQGLEWMGWINTYNDNTNYAQKFQGRVTMTTDTSTSTAYMELRSLRSDDTAVYYCARDGLWFGELPHYFDYWGQGTLVTVSS VL: DIQLTQSPLSSPVTLGQPASISCRSSQSLVNSDGETFLSWLQQRPGQPPRLLIYKISNRFSGVPDRFSGSGAGTDFTLKISRVEAEDVGVYYCMQATQFPHTFGQGTKLEIK
